± gives the standard deviation of the averaged measurements.
Columns and labels:
Saccharomyces cerevisiae [1] = experiment: protein stability index of tFT-peptide fusion (C-terminal peptide) (PSI (0-1 scale)); higher = more stable (slower turnover); conditions: genetic background: wild type; temperature: 30 C
Saccharomyces cerevisiae [2] = experiment: as above
Description: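 MPS profiling in S. cerevisiae of the tFT-X12 degron library: putative degron peptides plus stable controls, 12 aa, fused to the C-terminus of a sfGFP-mCherry timer. Cells are FACS-sorted into 8 mCherry/sfGFP bins and deep-sequenced. PSI runs from 0 (unstable) to 1 (stable). Backgrounds are wild type, das1Δ and doa10Δ at 30 °C, and wild type, das1Δ, cdc34-1 and cdc53-1 at 37 °C; 2-3 technical replicates each.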

[3] = genetic background: cdc34-1, temperature: 37 C
[4] = genetic background: cdc53-1, temperature: 37 C
[5] = genetic background: das1 deletion, temperature: 30 C
[6] = genetic background: das1 deletion, temperature: 37 C
[7] = genetic background: doa10 deletion, temperature: 30 C
[8] = genetic background: wild type, temperature: 30 C
[9] = genetic background: wild type, temperature: 37 C
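Note: PSI is a weighted mean of sequencing reads over stability bins, variants kept only with over 10 reads, mCherry proximal and sfGFP distal, peptide attached via GGGS linker.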

| Sequence | protein stability index (Saccharomyces cerevisiae [1]) | protein stability index (Saccharomyces cerevisiae [2]; [3]) | protein stability index (Saccharomyces cerevisiae [2]; [4]) | protein stability index (Saccharomyces cerevisiae [2]; [5]) | protein stability index (Saccharomyces cerevisiae [2]; [6]) | protein stability index (Saccharomyces cerevisiae [2]; [7]) | protein stability index (Saccharomyces cerevisiae [2]; [8]) | protein stability index (Saccharomyces cerevisiae [2]; [9]) |
| --- | --- | --- | --- | --- | --- | --- | --- | --- |
| AEIVCLTDGLLF | 0.5 ± 0.2 | 0.715 ± 0.012 | 0.758 ± 0.038 | 0.623 ± 0.013 | 0.7252 ± 0.0028 | 0.641 ± 0.028 | 0.665 ± 0.024 | 0.707 ± 0.0076 |
| AFFLLVSLLVSP | 0.204 ± 0.097 | 0.0637 ± 0.025 | 0.0989 ± 0.021 | 0.122 ± 0.046 | 0.219 ± 0.0041 | 0.0944 ± 0.0098 | 0.132 ± 0.041 | 0.186 ± 0.0021 |
| AFPSSVILMVFS | 0.332 ± 0.019 | 0.323 ± 0.036 | 0.32 ± 0.034 | 0.29 ± 0.032 | 0.425 ± 0.0063 | 0.228 ± 0.0063 | 0.287 ± 0.018 | 0.3872 ± 0.0029 |
| AFVVYSGSHGLV | 0.57 ± 0.2 | 0.686 ± 0.0094 | 0.75 ± 0.032 | 0.659 ± 0.014 | 0.7518 ± 0.0027 | 0.648 ± 0.011 | 0.654 ± 0.014 | 0.7186 ± 0.003 |
| AGALAVALPCIC | 0.5 ± 0.046 | 0.493 ± 0.011 | 0.506 ± 0.018 | 0.399 ± 0.03 | 0.531 ± 0.011 | 0.316 ± 0.0093 | 0.358 ± 0.028 | 0.48 ± 0.011 |
| AGGGGRFWVCVG | 0.364 ± 0.11 | 0.656 ± 0.027 | 0.7348 ± 0.0059 | 0.6377 ± 0.0058 | 0.726 ± 0.02 | 0.215 ± 0.00078 | 0.258 ± 0.028 | 0.5539 ± 0.0019 |
| ALLVLTVSYVFS | 0.167 ± 0.022 | 0.045 ± 0.011 | 0.0772 ± 0.044 | 0.0924 ± 0.028 | 0.188 ± 0.0081 | 0.057 ± 0.035 | 0.0839 ± 0.013 | 0.153 ± 0.031 |
| ALVWYSLSIIVN | 0.205 ± 0.064 | 0.0193 ± 0.0028 | 0.0815 ± 0.086 | 0.0515 ± 0.03 | 0.0682 ± 0.0034 | 0.0397 ± 0.0011 | 0.0403 ± 0.021 | 0.0736 ± 0.04 |
| APGGRGAAGPSC | 0.69 ± 0.029 | 0.67 ± 0.06 | 0.7207 ± 0.0065 | 0.631 ± 0.036 | 0.751 ± 0.033 | 0.639 ± 0.021 | 0.655 ± 0.033 | 0.704 ± 0.018 |
| APPLPFPTPPPS | – | 0.68 ± 0.031 | 0.747 ± 0.034 | 0.644 ± 0.042 | 0.693 ± 0.038 | 0.647 ± 0.029 | 0.633 ± 0.029 | 0.678 ± 0.0098 |
| ARALLGVGWYWV | 0.417 ± 0.024 | 0.654 ± 0.015 | 0.7854 ± 0.0065 | 0.645 ± 0.018 | 0.761 ± 0.02 | 0.225 ± 0.014 | 0.272 ± 0.02 | 0.537 ± 0.0059 |
| ARCKRSLSGGIG | 0.588 ± 0.14 | 0.489 ± 0.034 | 0.579 ± 0.02 | 0.512 ± 0.012 | 0.5452 ± 0.00083 | 0.531 ± 0.0073 | 0.524 ± 0.022 | 0.54 ± 0.011 |
| ARSGGYLMVVLV | 0.463 ± 0.031 | 0.56 ± 0.033 | 0.599 ± 0.011 | 0.41 ± 0.032 | 0.601 ± 0.011 | 0.351 ± 0.0013 | 0.384 ± 0.023 | 0.562 ± 0.038 |
| ASFVCWSVCALG | 0.413 ± 0.025 | 0.508 ± 0.026 | 0.545 ± 0.006 | 0.4 ± 0.022 | 0.525 ± 0.015 | 0.384 ± 0.029 | 0.398 ± 0.019 | 0.5104 ± 0.0049 |
| ASGFLVIPLWVF | 0.294 ± 0.019 | 0.41 ± 0.0072 | 0.4653 ± 0.0021 | 0.323 ± 0.029 | 0.491 ± 0.022 | 0.17 ± 0.0047 | 0.19 ± 0.018 | 0.255 ± 0.0083 |
| ASICAFFCWFLV | 0.419 ± 0.022 | 0.527 ± 0.035 | 0.58116 ± 0.00042 | 0.457 ± 0.023 | 0.601 ± 0.024 | 0.326 ± 0.0088 | 0.321 ± 0.026 | 0.497 ± 0.013 |
| ASSFYVDLVLVS | 0.447 ± 0.0094 | 0.457 ± 0.014 | 0.464 ± 0.024 | 0.341 ± 0.034 | 0.516 ± 0.013 | 0.286 ± 0.0084 | 0.327 ± 0.046 | 0.484 ± 0.0065 |
| AVTMSYQCGIFI | – | 0.646 ± 0.029 | 0.672 ± 0.031 | 0.564 ± 0.0081 | 0.71 ± 0.028 | 0.5372 ± 0.0042 | 0.566 ± 0.019 | 0.68 ± 0.022 |

— the supplement of paper PMC10724198
